For the assay, the target named is HLA-A2 molecule. Description: HLA class I stabilization assay, RMA-S/A2 cells, peptide 10 µg/ml, flow cytometry with BB7.2.

B1: T790M-5 (peptide)
peptide: MQLMPFGCLL
Molecule B1 returned an HLA binding capability (%) (MFI increase) of 267%.

B2: T790M-8 (peptide)
peptide: IMQLMPFGCLL
With B2, the HLA binding capability (%) (MFI increase) was determined as 69.3%.

B3: T790M-7 (peptide)
peptide: LIMQLMPFGCL
B3 had an HLA binding capability (%) (MFI increase) of 31.2%.
